Consider three substances from patent US20170023592A1.

Experiment [1] has as its target human BNP(1-32) (human). The experiment is described as follows: sandwich ELISA, L21016 capture, BNP(1-32) 5 ng/ml; detection by 50B7 0.5 ug/ml alone (no 20G7). In general terms: An ELISA detects its analyte on a solid surface through an enzyme-linked reagent.
Experiment [2] deals with human BNP(1-32) (human). The experiment can be described thus: sandwich ELISA, L21016 capture, mAb detection; BNP(1-32) 10,000 pg/ml.
Sequence of human BNP(1-32) (human) (peptide, as listed by the source): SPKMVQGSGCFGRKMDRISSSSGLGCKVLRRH
Experiment [3] deals with human BNP(1-32) (human). The experiment is described as follows: sandwich ELISA, L21016 capture, mAb detection; BNP(1-32) 2,500 pg/ml.
Experiment [4] addresses human proBNP(1-108), recombinant, produced in E. coli (non-glycosylated) (human) (UniProt P16860). The experiment can be described thus: sandwich ELISA, hinge 76 capture, peroxidase-mAb detection; proBNP(1-108) 156.25 pg/ml.
The target in experiment [5] is human BNP(1-32) (human). The experiment can be described thus: sandwich ELISA, L21016 capture, mAb detection; BNP(1-32) 156.25 pg/ml.
For experiment [6], the target named is human proBNP(1-108), recombinant, produced in E. coli (non-glycosylated) (human) (UniProt P16860). The experiment is described as follows: sandwich ELISA, hinge 76 capture, peroxidase-mAb detection; proBNP(1-108) 625 pg/ml.
Sequence of human proBNP(1-108), recombinant, produced in E. coli (non-glycosylated) (human) (P16860 27-134): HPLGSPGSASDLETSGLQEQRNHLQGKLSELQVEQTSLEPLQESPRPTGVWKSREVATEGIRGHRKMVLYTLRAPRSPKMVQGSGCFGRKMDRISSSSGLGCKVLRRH
Experiment [7] shares this target. The experiment is described as follows: sandwich ELISA, hinge 76 capture, peroxidase-mAb detection; proBNP(1-108) 2,500 pg/ml.
For experiment [8] the target is unchanged. The experiment can be described thus: sandwich ELISA, hinge 76 capture, peroxidase-mAb detection; proBNP(1-108) 39 pg/ml.
Experiment [9] has as its target human BNP(1-32) (human). The experiment is described as follows: sandwich ELISA, L21016 capture, mAb detection; BNP(1-32) 312.5 pg/ml.
Experiment [10] deals with human proBNP(1-108), recombinant, produced in E. coli (non-glycosylated) (human) (UniProt P16860). The experiment can be described thus: sandwich ELISA, hinge 76 capture, peroxidase-mAb detection; proBNP(1-108) 78 pg/ml.
The target is the same in experiment [11]. The experiment is described as follows: sandwich ELISA, hinge 76 capture, peroxidase-mAb detection; proBNP(1-108) 5,000 pg/ml.
Experiment [12] has the same target. The experiment can be described thus: sandwich ELISA, hinge 76 capture, peroxidase-mAb detection; proBNP(1-108) 0 pg/ml (blank).
Experiment [13] has as its target human BNP(1-32) (human). The experiment can be described thus: sandwich ELISA, L21016 capture, mAb detection; BNP(1-32) 5,000 pg/ml.
Experiment [14] deals with human proBNP(1-108), recombinant, produced in E. coli (non-glycosylated) (human) (UniProt P16860). The experiment can be described thus: sandwich ELISA, hinge 76 capture, peroxidase-mAb detection; proBNP(1-108) 10,000 pg/ml.
Experiment [15] concerns the target human BNP(1-32) (human). The experiment can be described thus: sandwich ELISA, L21016 capture, mAb detection; BNP(1-32) 0 pg/ml (blank).
The target in experiment [16] is human proBNP(1-108), recombinant, produced in E. coli (non-glycosylated) (human) (UniProt P16860). The experiment can be described thus: sandwich ELISA, hinge 76 capture, peroxidase-mAb detection; proBNP(1-108) 20 pg/ml.
The target in experiment [17] is human BNP(1-32) (human). The experiment can be described thus: sandwich ELISA, L21016 capture, mAb detection; BNP(1-32) 625 pg/ml.
For experiment [18], the target named is human proBNP(1-108), recombinant, produced in E. coli (non-glycosylated) (human) (UniProt P16860). The experiment can be described thus: sandwich ELISA, hinge 76 capture, peroxidase-mAb detection; proBNP(1-108) 312.5 pg/ml.
For experiment [19] the target is unchanged. The experiment is described as follows: sandwich ELISA, hinge 76 capture, peroxidase-mAb detection; proBNP(1-108) 1,250 pg/ml.
For experiment [20], the target named is human BNP(1-32) (human). The experiment can be described thus: sandwich ELISA, L21016 capture, mAb detection; BNP(1-32) 1,250 pg/ml.
For experiment [21], the target named is human BNP(1-32) (human). The experiment is described as follows: sandwich ELISA, L21016 capture, mAb detection; BNP(1-32) 20 pg/ml.
Experiment [22] deals with human BNP(1-32) (human). The experiment is described as follows: sandwich ELISA, L21016 capture, mAb detection; BNP(1-32) 78 pg/ml.
Experiment [23] concerns the target human BNP(1-32) (human). The experiment is described as follows: sandwich ELISA, L21016 capture, mAb detection; BNP(1-32) 39 pg/ml.

In the experiment with human BNP(1-32) (human) [1], “50B7 monoclonal antibody (HyTest, Finland)” registered an Optical Density 490 nm of 1.3 OD.
“26E2 monoclonal antibody (HyTest, Turku, Finland)”: the optical density (OD) at 490 nm with human BNP(1-32) (human) [2] stood at 0.048 OD; with human BNP(1-32) (human) [3], 0.035 OD; with human BNP(1-32) (human) [5], 0.032 OD; with human BNP(1-32) (human) [9], 0.027 OD; with human BNP(1-32) (human) [13], 0.041 OD; with human BNP(1-32) (human) [15], 0.022 OD. Also, the optical density (OD) at 490 nm was found to be 0.029 OD with human BNP(1-32) (human) [17]; 0.031 OD with human BNP(1-32) (human) [20]; 0.034 OD with human BNP(1-32) (human) [21]; 0.055 OD in the experiment with human BNP(1-32) (human) [22]; 0.032 OD in the experiment with human BNP(1-32) (human) [23]. The optical density (OD) turned out to be 0.027 OD in experiment [4]; 0.024 OD in experiment [6]; 0.031 OD in experiment [7]; 0.028 OD in experiment [8]; 0.033 OD in [10]; 0.041 OD in [11]. The optical density (OD) turned out to be 0.024 OD in experiment [12]; 0.158 OD in experiment [14]; 0.028 OD in [16]; 0.028 OD in [18]; 0.024 OD in [19].
For the substance “24C5 monoclonal antibody (HyTest, Turku, Finland)”, the optical density (OD) at 490 nm in the experiment with human BNP(1-32) (human) [2] turned out to be 0.077 OD; with human BNP(1-32) (human) [3], 0.067 OD; with human BNP(1-32) (human) [5], 0.071 OD; in the experiment with human BNP(1-32) (human) [9] it was 0.063 OD; with human BNP(1-32) (human) [13] it was 0.068 OD; with human BNP(1-32) (human) [15], 0.071 OD. For the same substance, the optical density (OD) at 490 nm with human BNP(1-32) (human) [17] was 0.059 OD; in the experiment with human BNP(1-32) (human) [20] it was 0.056 OD; with human BNP(1-32) (human) [21], 0.068 OD; with human BNP(1-32) (human) [22] it was 0.052 OD; with human BNP(1-32) (human) [23], 0.055 OD. The optical density (OD) was 0.055 OD in experiment [4]; 0.07 OD in experiment [6]; 0.069 OD in [7]; 0.056 OD in experiment [8]; 0.056 OD in experiment [10]; 0.117 OD in experiment [11]. The optical density (OD) in experiment [12] was 0.044 OD; in experiment [14], 0.22 OD; in experiment [16], 0.052 OD; in experiment [18], 0.035 OD; in experiment [19], 0.068 OD.
